Experiments:
[1] = HPLC-assay for in-use stability after reconstitution with 4.2% sodium hydrogen carbonate solution (Example 2, peptides SEQ ID NO 1-10); assay type: physicochemical
Description: Resolubilization procedure: For clinical trials the above described formulation is dissolved in 700 μl sodium hydrogen carbonate (4.2%). Remove plastic cap from one vial. Unpack and remove sodium hydrogen carbonate (4.2%) from the refrigerator at least 30 min before resolubilization to bring them up to room temperature before injection. Prepare syringe and needle for reconstitution. Use aseptic technique to take 700 μL of diluent for reconstitution of the lyophilisate. To dissolve the lyophilisate, the vial and the diluent shall be shaken vigorously for 1 minute, check whether solution is clear, otherwise continue shaking for another minute until the solution is clear. 10 to 30 minutes after GM-CSF injection, use a new syringe to administer 500 μL reconstituted formulation i.d. at the same site. Administration has to occur within 1 h after reconstitution. Dissolved lyophilisate may be stored aseptically at room temperature for up to 1 hour following reconstitution.
However, a decrease of two specific peptides, i.e. IMA-CCN-001 and IMA-RGS-001 took place (see Table 6). As these peptides contain a cysteine residue, time-depending dimerization takes place.
Identity, purity and peptide content are determined by analytical RP-HPLC chromatography. Detection wavelength was 220 nm.

[2] = Stability of renal cell cancer vaccine test formulations at +25° C. and +40° C. by analytical HPLC assay; assay type: physicochemical; settings: especially at +40° C.
Description: Various lyophilisates were tested with respect to stability of each individual peptide at +25° C. and […] using an analytical HPLC assay.
The peptides according to the SEQ ID NOs: 1 to 10 were lyophilised without any excipients and by addition of mannitol and Poloxamer 188 (LUTROL F68®) or TWEEN 80®.
The following test formulations were produced and stability were assessed at +25° C. and +40° C. by analytical HPLC assay:
Initial HPLC measurements have been performed for each formulation before storage in a climate chamber. For this purpose, the content of two vials was completely dissolved in 30% acetic acid and measured by RP-HPLC by repeat determination. To assure comparability between the individual measurements, β-Naphtyl-alanine was used as internal standard and lyophilized together with the peptides.
After 7, 14, 21, and 28 days, another two vials were removed from the climate chamber to assess stability.
Data assessment was performed by repeat determination of one vial. For one time point and temperature, two independent vials were used to obtain four data points in total. These values have been taken to calculate the standard deviation shown as error bars in the relevant diagram.

[3] = +mannitol/lutrol, 1 h after reconstitution
[4] = +mannitol/lutrol, 2 h after reconstitution
[5] = +mannitol/lutrol, 3 h after reconstitution
[6] = +mannitol/lutrol, 4 h after reconstitution
[7] = +mannitol/lutrol, 5 h after reconstitution
[8] = +mannitol/lutrol, 6 h after reconstitution
[9] = +mannitol/lutrol, Initial (starting value set to 100%)
[10] = no excipients, 1 h after reconstitution
[11] = no excipients, 2 h after reconstitution
[12] = no excipients, 3 h after reconstitution
[13] = no excipients, Initial (starting value set to 100%)

Sequence: LAALPHSCL (listed as Homo sapiens) [RGS-001, RGS-5 tumour-associated peptide]
- in-use stability, peptide by HPLC-assay [1, 3]: 97.9%
- in-use stability, peptide by HPLC-assay [1, 4]: 95.5%
- in-use stability, peptide by HPLC-assay [1, 5]: 94.2%
- in-use stability, peptide by HPLC-assay [1, 6]: 91.6%
- in-use stability, peptide by HPLC-assay [1, 7]: 88.0%
- in-use stability, peptide by HPLC-assay [1, 8]: 86.8%
- in-use stability, peptide by HPLC-assay [1, 9]: 100.0%
- stability after reconstitution (in words) ([1]; Example 2 formulation, 4.2% sodium hydrogen carbonate): decrease
- in-use stability, peptide by HPLC-assay [1, 10]: 90.9%
- in-use stability, peptide by HPLC-assay [1, 11]: 77.8%
- in-use stability, peptide by HPLC-assay [1, 12]: 64.6%
- in-use stability, peptide by HPLC-assay [1, 13]: 100.0%
- peptide signal in formulations containing TWEEN 80 [2]: enhanced degradation

Sequence: SVASTITGV (listed as Homo sapiens) [ADF-001, Adipophilin tumour-associated peptide]
- in-use stability, peptide by HPLC-assay [1, 3]: 99.6%
- in-use stability, peptide by HPLC-assay [1, 4]: 99.6%
- in-use stability, peptide by HPLC-assay [1, 5]: 100.7%
- in-use stability, peptide by HPLC-assay [1, 6]: 100.8%
- in-use stability, peptide by HPLC-assay [1, 7]: 99.9%
- in-use stability, peptide by HPLC-assay [1, 8]: 101.8%
- in-use stability, peptide by HPLC-assay [1, 9]: 100.0%
- in-use stability, peptide by HPLC-assay [1, 10]: 102.4%
- in-use stability, peptide by HPLC-assay [1, 11]: 102.4%
- in-use stability, peptide by HPLC-assay [1, 12]: 100.0%
- in-use stability, peptide by HPLC-assay [1, 13]: 100.0%
- peptide signal in formulations containing TWEEN 80 [2]: increase of the signal
